Results from the supplement of paper PMC9732359.
± gives the uncertainty stated by the source.

Assay: protein stability index of a GFP-peptide fusion (yeast GPS) (PSI 1-4); higher = more stable; sorted into four equal gates, so the index is relative within each strain
Method in brief: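 The protein stability index combines read frequencies across sorting gates, each weighted by its gate number and then summed. To obtain those frequencies, a pooled yeast library of GFP fusions to tiled 17-residue yeast protein peptides, on a plasmid also expressing Cherry, was grown to mid-log phase in leucine-free medium. The cells were sorted into four equal gates by GFP/Cherry ratio before plasmid amplification by PCR and Illumina sequencing.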

Sequence	protein stability index (doa10∆)	protein stability index (pdr5∆)	protein stability index (ubr1∆)	protein stability index (san1∆)
VFGTIIPKISDYIEFNI [YJL039C/NUP192]	2.05 ± 0.17	1.68 ± 0.22	1.61 ± 0.26	
KREEKAMTIYWDDHTKK [CDC53]	2.5 ± 0.076	2.2 ± 0.068	2.25 ± 0.051	3.45 ± 0.072
HTEDESTKELKFSDIIQ [BRN1]	3.11 ± 0.2	2.89 ± 0.21	3.41 ± 0.094	3.23 ± 0.22
SNDKVVEWINPSRRERR [ISW2]			3.34 ± 0.15	
GVCNHAFHLHCINKWIK [HRT1]	1.77 ± 0.045	2.49 ± 0.04	2.16 ± 0.042	1.64 ± 0.068
LVTIEGALIHKAGLMTG [SMC1]	2.99 ± 0.14	2.71 ± 0.12	2.95 ± 0.12	2.92 ± 0.13
KPMTAYARADTHFLLNI [RRP6]	2.26 ± 0.05	2.17 ± 0.047	1.87 ± 0.046	2.34 ± 0.06
MEKKKSSSLSLESFMKS [SNM1]	1.84 ± 0.04	1.91 ± 0.045	2.04 ± 0.04	2.62 ± 0.06
MEMIENRTMDGKPVSLP [FAS1]	3.38 ± 0.15	3.24 ± 0.22	3.39 ± 0.096	2.75 ± 0.16
RYWVQKERSDGKRHIFD [CDC53]	2.49 ± 0.2	2.98 ± 0.26	2.91 ± 0.14	3.46 ± 0.13
FLNEARDKAGRLAEVNL [RPO21]	2.05 ± 0.074	1.55 ± 0.054	1.47 ± 0.055	2.06 ± 0.13
APMDFAIVVGWRAIIKA [FAS1]	2.51 ± 0.086	2.66 ± 0.08	2.14 ± 0.062	2.57 ± 0.082
SSQNNSELAPIEEHPTV [IRR1]			3.14 ± 0.17	
HSLSQAIKWDGSSGGVI [PRE3]	3.69 ± 0.28	3.27 ± 0.21		2.67 ± 0.21
TLTELKDALSNSILSVR [SRB2]	3.29 ± 0.068	3.38 ± 0.082	3.37 ± 0.09	3.21 ± 0.049
FTQPALTLMEKAAFEDL [FAS1]	2.74 ± 0.1	2.33 ± 0.078	2.9 ± 0.07	2.77 ± 0.091
IRVAETRGGASALIENN [YJL039C/NUP192]	2.39 ± 0.071	2.46 ± 0.089	2.89 ± 0.055	3.1 ± 0.072
AEDVALNEQVKKFFLNN [NAS6]	2.12 ± 0.058	2.18 ± 0.069	2.04 ± 0.068	2.11 ± 0.067
MGVRTFSQKEMAFNLLG [FAS2]	2.1 ± 0.078	1.9 ± 0.057	2.21 ± 0.046	2.15 ± 0.083
ADNTKDKEKEENNDDAL [MED4]	2.86 ± 0.14	3.04 ± 0.11	3.16 ± 0.082	2.98 ± 0.078

Sequence	protein stability index (doa10∆)	protein stability index (pdr5∆)	protein stability index (ubr1∆)	protein stability index (san1∆)
PAKIVNFEKPKNSSQLL [RPN5]	3.06 ± 0.075	3.2 ± 0.068	3.2 ± 0.06	3.21 ± 0.052
QWIKFLLHTLYLRPASA [SSN8]	1.81 ± 0.051	1.59 ± 0.042	1.72 ± 0.035	1.4 ± 0.073
FTCSCNSLTVDGNNANY [RPN14]	2.8 ± 0.074	2.81 ± 0.076	2.75 ± 0.044	2.69 ± 0.058
SRSTDNFHNSKKRMNSN [RRI1]	2.11 ± 0.06	2.4 ± 0.081	2.61 ± 0.081	2.26 ± 0.1
LCHPKKEKYGLAVSTIL [SMC1]	2.29 ± 0.063	2.31 ± 0.063	2.15 ± 0.048	2.23 ± 0.091
EELRDLYQTYHVLVGDL [FAS1]	2.26 ± 0.071	2.54 ± 0.054	2.38 ± 0.049	2.22 ± 0.059
AKAGLTFPVGRVHRLLR [HTA1]	2.03 ± 0.11	2.72 ± 0.14	2.39 ± 0.12	2.01 ± 0.16
QEHTIFTQLKKNIPKTR [SNU114]	1.8 ± 0.045	2.16 ± 0.05	1.62 ± 0.037	2.64 ± 0.049
KSRMINFLDAPGHVNFM [SNU114]		2.65 ± 0.17	3.57 ± 0.28	3.06 ± 0.12
SKNAQFICTTFRTDMLQ [SMC3]	2.11 ± 0.074	1.49 ± 0.075	1.05 ± 0.073	1.5 ± 0.13
IYKSIFNVVDVGVDQLS [YJL039C/NUP192]	3.11 ± 0.055	2.92 ± 0.047	3.05 ± 0.042	3.05 ± 0.041
SETFLQFYVKRWKRFTI [CDC53]	2.39 ± 0.1	2.74 ± 0.063	2.3 ± 0.074	1.73 ± 0.1
IDATLKEELLRDGVLTV [RRP45]	1.8 ± 0.047	1.92 ± 0.05	2.04 ± 0.045	2 ± 0.081
NTCTISTSKFESQYPIV [SWP82]	2.57 ± 0.089	2.67 ± 0.11	2.81 ± 0.071	2.97 ± 0.074
MFRYKTNLYKLKEERAI [PUP3]	2.87 ± 0.22	2.67 ± 0.17	2.1 ± 0.093	1.78 ± 0.17
MDTSDDAFVATAFATEF [DLS1]	2.82 ± 0.07	3.08 ± 0.09	2.8 ± 0.044	2.75 ± 0.081
YKQAMNETSEQLVPIRL [SNF5]	3.23 ± 0.16	3.12 ± 0.15	3.43 ± 0.12	3.08 ± 0.22
ISFAAFILADAGLEITS [RPP1B]	1.98 ± 0.063	1.8 ± 0.055	1.9 ± 0.076	2.03 ± 0.23
TEYRGTLVSTDNYFNLQ [SMX3]	1.83 ± 0.038	2.65 ± 0.046	2.23 ± 0.041	2.4 ± 0.059
ADVFRRCLVAVIQQDKY [SRP72]	1.6 ± 0.11	2.17 ± 0.066	2.74 ± 0.18	1.86 ± 0.1
